Target: T1, αβγENaC (Rattus norvegicus, UniProt P37089+P37090+P37091, R138K/R205K/R231K)
T1 construct: expressed in transfected cells; host or cells: Xenopus laevis oocytes (cRNA injection)
T1 sequence (P37089 1-698 R205K/R231K): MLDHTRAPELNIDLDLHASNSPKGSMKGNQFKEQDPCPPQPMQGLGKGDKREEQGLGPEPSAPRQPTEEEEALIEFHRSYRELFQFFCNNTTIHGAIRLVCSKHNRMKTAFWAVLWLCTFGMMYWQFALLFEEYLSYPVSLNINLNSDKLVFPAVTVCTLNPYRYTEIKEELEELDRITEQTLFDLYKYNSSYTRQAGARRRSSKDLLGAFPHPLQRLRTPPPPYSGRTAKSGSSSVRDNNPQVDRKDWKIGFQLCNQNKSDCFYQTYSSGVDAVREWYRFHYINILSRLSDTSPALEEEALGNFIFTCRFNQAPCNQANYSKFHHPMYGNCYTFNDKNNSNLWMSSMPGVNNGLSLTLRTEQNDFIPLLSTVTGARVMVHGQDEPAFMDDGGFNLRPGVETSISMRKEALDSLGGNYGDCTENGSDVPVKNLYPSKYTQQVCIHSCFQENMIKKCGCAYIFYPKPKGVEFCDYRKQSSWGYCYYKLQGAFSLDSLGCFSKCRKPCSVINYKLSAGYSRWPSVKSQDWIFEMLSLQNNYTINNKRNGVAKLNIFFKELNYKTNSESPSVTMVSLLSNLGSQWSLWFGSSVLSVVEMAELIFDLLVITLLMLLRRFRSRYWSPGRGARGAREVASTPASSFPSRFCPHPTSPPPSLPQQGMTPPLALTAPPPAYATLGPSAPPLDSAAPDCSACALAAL
T1 sequence (P37090 1-638): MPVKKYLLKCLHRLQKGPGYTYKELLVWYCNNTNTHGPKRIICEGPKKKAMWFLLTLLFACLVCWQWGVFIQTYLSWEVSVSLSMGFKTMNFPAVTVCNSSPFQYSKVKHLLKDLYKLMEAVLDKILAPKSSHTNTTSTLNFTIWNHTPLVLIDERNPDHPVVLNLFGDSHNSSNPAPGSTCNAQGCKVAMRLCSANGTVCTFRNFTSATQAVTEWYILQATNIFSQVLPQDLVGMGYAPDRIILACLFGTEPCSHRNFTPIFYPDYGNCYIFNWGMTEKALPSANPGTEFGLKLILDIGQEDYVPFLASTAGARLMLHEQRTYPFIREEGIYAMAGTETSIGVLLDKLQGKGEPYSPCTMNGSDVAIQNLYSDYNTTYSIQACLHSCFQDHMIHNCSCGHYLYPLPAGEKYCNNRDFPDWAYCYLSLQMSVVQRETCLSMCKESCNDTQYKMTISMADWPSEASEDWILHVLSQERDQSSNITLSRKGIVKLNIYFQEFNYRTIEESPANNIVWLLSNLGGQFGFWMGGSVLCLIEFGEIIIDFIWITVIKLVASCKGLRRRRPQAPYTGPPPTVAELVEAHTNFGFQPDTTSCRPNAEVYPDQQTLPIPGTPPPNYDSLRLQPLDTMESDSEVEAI
T1 sequence (P37091 1-650 R138K): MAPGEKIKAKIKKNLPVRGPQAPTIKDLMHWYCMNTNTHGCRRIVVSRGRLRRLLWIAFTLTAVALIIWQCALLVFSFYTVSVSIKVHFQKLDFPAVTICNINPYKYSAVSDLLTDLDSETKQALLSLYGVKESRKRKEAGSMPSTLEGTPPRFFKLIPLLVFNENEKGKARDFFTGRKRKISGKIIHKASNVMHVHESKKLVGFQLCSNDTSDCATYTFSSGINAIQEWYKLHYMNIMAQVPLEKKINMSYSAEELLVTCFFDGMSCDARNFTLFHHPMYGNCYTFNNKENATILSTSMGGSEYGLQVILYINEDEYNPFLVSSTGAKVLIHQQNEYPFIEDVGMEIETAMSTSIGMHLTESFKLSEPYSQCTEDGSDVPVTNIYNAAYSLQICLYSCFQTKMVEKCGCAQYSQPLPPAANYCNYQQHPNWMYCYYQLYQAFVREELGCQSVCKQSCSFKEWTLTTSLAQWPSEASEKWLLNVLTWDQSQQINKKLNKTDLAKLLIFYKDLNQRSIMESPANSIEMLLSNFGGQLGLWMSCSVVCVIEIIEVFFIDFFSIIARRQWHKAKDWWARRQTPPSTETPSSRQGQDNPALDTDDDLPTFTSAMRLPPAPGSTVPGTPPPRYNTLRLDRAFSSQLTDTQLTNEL
Test: Amiloride-sensitive whole cell current, two electrode voltage clamp, Xenopus laevis oocytes expressing αβγENaC
Assay type: cell-based
Details: SPLUNC1 co-expressed

B1: SPLUNC1: human SPLUNC1 (SEQ ID NO:1), 256 amino acid secreted PLUNC family protein; rSPLUNC1 is the purified V5/6His-tagged recombinant form (protein, listed as Homo sapiens)
chain: MFQTGGLIVFYGLLAQTMAQFGGLPVPLDQTLPLNVNPALPLSPTGLAGSLTNALSNGLLSGGLLGILENLPLLDILKPGGGTSGGLLGGLLGKVTSVIPGLNNIIDIKVTDPQLLELGLVQSPDGHRLYVTIPLGIKLQVNTPLVGASLLRLAVKLDITAEILAVRDKQERIHLVLGDCTHSPGSLQISLLDGLGPLPIQGLLDSLTGILNKVLPELVQGNVCPLVNEVLRGLDITLVHDIVNMLIHGLQFVIKV
modifications: V5/6His tag in recombinant form
notes: rSPLUNC1 is the purified V5/6His-tagged recombinant form
current of furin-insensitive αR205,231K,β,γR138K ENaC mutant: also inhibited

Reference: patent US9127040B2, “Regulation of sodium channels by PLUNC proteins” (The University of North Carolina at Chapel Hill, priority 2011, dated 2015)
